In PMC7301157:

Biological target: Clb3-Cdk1 (S. cerevisiae) (UniProt P24870)
UniProt P24870, sequence (P24870 whole entry, chain 1 of 2): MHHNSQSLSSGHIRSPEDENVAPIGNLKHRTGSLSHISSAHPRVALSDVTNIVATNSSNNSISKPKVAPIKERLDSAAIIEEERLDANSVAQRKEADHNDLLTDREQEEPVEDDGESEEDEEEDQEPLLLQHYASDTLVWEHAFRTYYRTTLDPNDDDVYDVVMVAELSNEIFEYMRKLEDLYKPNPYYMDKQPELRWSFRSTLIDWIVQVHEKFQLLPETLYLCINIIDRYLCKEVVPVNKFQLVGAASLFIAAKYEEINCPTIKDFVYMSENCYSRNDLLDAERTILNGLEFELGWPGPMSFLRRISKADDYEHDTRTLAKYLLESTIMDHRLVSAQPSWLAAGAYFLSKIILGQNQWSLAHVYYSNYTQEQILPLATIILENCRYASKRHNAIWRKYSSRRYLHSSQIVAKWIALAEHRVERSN
UniProt P24870, sequence (P00546 whole entry, chain 2 of 2, further chain): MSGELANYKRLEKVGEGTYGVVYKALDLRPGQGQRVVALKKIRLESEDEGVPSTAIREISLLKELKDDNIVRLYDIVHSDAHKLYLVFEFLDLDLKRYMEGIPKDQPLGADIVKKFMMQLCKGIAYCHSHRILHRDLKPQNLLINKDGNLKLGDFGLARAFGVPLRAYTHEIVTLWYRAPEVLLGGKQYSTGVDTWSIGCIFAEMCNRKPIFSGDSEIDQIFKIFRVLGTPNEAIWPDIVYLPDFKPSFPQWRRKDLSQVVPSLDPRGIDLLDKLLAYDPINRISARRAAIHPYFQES

increase of the phosphorylation rate of the model substrate by Clb3-Cdk1: 65 fold
Substance: Sic1(1–33 SPxA) model substrate with PPKGPNF (from UniProt P38634 1-33)
